Results from patent US20190127480A1 (Regeneron, published 2019).

B1: BSPSMA/CD3-003 (bispecific antibody, IgG4, V domains shown)
VH 1: QVQLVESGGGVVQPGRSLRLSCAASGFTFSSYGMHWVRQAPGKGLEWVAVISYAGNNKYYADSVKGRFTVSRDNSKKTLYLQMNSLRSEDTAVYYCAKDSYYDFLTDPDVLDIWGQGTMVTVSS
VH 2: EVQLVESGGGLVQPGRSLRLSCAASGFTFDDYSMHWVRQAPGKGLEWVSGISWNSGSKGYADSVKGRFTISRDNAKNSLYLQMNSLRAEDTALYYCAKYGSGYGKFYHYGLDVWGQGTTVTVSS
VL: DIQMTQSPSSLSASVGDSVTITCRASQSINNYLNWYQQKPGKAPKLLIYTASSLLSGVPSRFSGSGSGTDFTLTISGLHPEDFATYFCQQSFSTPPITFGQGTRLDIK
notes: modified (chimeric) IgG4 Fc domain; also called PSMA-VH-11810 x CD3-VH-G
B2: BSPSMA/CD3-1000 (bispecific antibody, IgG4, V domains shown)
VH 1: QVQLVESGGGVVQPGRSLRLSCAASGFTFSSYGMHWVRQAPGKGLEWVAVISYAGNNKYYADSVKGRFTVSRDNSKKTLYLQMNSLRSEDTAVYYCAKDSYYDFLTDPDVLDIWGQGTMVTVSS
VH 2: EVQLVESGGGLVQPGRSLRLSCAASGFTFDDYSMHWVRQAPGKGLEWVSGISWNSGSKGYADSVKGRFTISRDNAKNSLYLQMNSLRAEDTALYYCAKYGSGYGKFYYYGLDVWGQGTTVTVSS
VL: DIQMTQSPSSLSASVGDSVTITCRASQSINNYLNWYQQKPGKAPKLLIYTASSLLSGVPSRFSGSGSGTDFTLTISGLHPEDFATYFCQQSFSTPPITFGQGTRLDIK
notes: modified (chimeric) IgG4 Fc domain; also called PSMA-VH-11810 x CD3-VH-G10
B3: BSPSMA/CD3-800 (bispecific antibody, IgG4, V domains shown)
VH 1: QVQLVESGGGVVQPGRSLRLSCAASGFTFSSYGMHWVRQAPGKGLEWVAVISYAGNNKYYADSVKGRFTVSRDNSKKTLYLQMNSLRSEDTAVYYCAKDSYYDFLTDPDVLDIWGQGTMVTVSS
VH 2: EVQLVESGGGLVQPGRSLRLSCAASGFTFDDYSMHWVRQAPGKGLEWVSGISWNSGSIGYADSVKGRFTISRDNAKNSLYLQMNSLRAEDTALYYCAKYGSGYGKFYHYGLDVWGQGTTVTVSS
VL: DIQMTQSPSSLSASVGDSVTITCRASQSINNYLNWYQQKPGKAPKLLIYTASSLLSGVPSRFSGSGSGTDFTLTISGLHPEDFATYFCQQSFSTPPITFGQGTRLDIK
notes: modified (chimeric) IgG4 Fc domain; also called PSMA-VH-11810 x CD3-VH-G8
B4: BSPSMA/CD3-1100 (bispecific antibody, IgG4, V domains shown)
VH 1: QVQLVESGGGVVQPGRSLRLSCAASGFTFSSYGMHWVRQAPGKGLEWVAVISYAGNNKYYADSVKGRFTVSRDNSKKTLYLQMNSLRSEDTAVYYCAKDSYYDFLTDPDVLDIWGQGTMVTVSS
VH 2: EVQLVESGGGLVQPGRSLRLSCAASGFTFDDYSMHWVRQAPGKGLEWVSGISWNSGSKGYADSVKGRFTISRDNAKNSLYLQMNSLRAEDTALYYCAKYGSGYGKFYHYGMDVWGQGTTVTVSS
VL: DIQMTQSPSSLSASVGDSVTITCRASQSINNYLNWYQQKPGKAPKLLIYTASSLLSGVPSRFSGSGSGTDFTLTISGLHPEDFATYFCQQSFSTPPITFGQGTRLDIK
notes: modified (chimeric) IgG4 Fc domain; also called PSMA-VH-11810 x CD3-VH-G11
B5: BSPSMA/CD3-1400 (bispecific antibody, IgG4, V domains shown)
VH 1: QVQLVESGGGVVQPGRSLRLSCAASGFTFSSYGMHWVRQAPGKGLEWVAVISYAGNNKYYADSVKGRFTVSRDNSKKTLYLQMNSLRSEDTAVYYCAKDSYYDFLTDPDVLDIWGQGTMVTVSS
VH 2: EVQLVESGGGLVQPGRSLRLSCAASGFTFDDYSMHWVRQAPGKGLEWVSGISWNSGSIGYADSVKGRFTISRDNAKNSLYLQMNSLRAEDTALYYCAKYGSGYGKFYHYGMDVWGQGTTVTVSS
VL: DIQMTQSPSSLSASVGDSVTITCRASQSINNYLNWYQQKPGKAPKLLIYTASSLLSGVPSRFSGSGSGTDFTLTISGLHPEDFATYFCQQSFSTPPITFGQGTRLDIK
notes: modified (chimeric) IgG4 Fc domain; also called PSMA-VH-11810 x CD3-VH-G14
B6: BSPSMA/CD3-005 (bispecific antibody, IgG4, V domains shown)
VH 1: QVQLVESGGGVVQPGRSLRLSCAASGFTFSSYGMHWVRQAPGKGLEWVAVISYAGNNKYYADSVKGRFTVSRDNSKKTLYLQMNSLRSEDTAVYYCAKDSYYDFLTDPDVLDIWGQGTMVTVSS
VH 2: EVQLVESGGGLVQPGRSLRLSCAASGFTFDDYSMHWVRQAPGKGLEWVSGISWNSGSIGYADSVKGRFTISRDNAKNSLYLQMNSLRAEDTALYYCAKYGSGYGKFYYYGMDVWGQGTTVTVSS
VL: DIQMTQSPSSLSASVGDSVTITCRASQSINNYLNWYQQKPGKAPKLLIYTASSLLSGVPSRFSGSGSGTDFTLTISGLHPEDFATYFCQQSFSTPPITFGQGTRLDIK
notes: modified (chimeric) IgG4 Fc domain; also called PSMA-VH-11810 x CD3-VH-G20
B7: BSPSMA/CD3-900 (bispecific antibody, IgG4, V domains shown)
VH 1: QVQLVESGGGVVQPGRSLRLSCAASGFTFSSYGMHWVRQAPGKGLEWVAVISYAGNNKYYADSVKGRFTVSRDNSKKTLYLQMNSLRSEDTAVYYCAKDSYYDFLTDPDVLDIWGQGTMVTVSS
VH 2: EVQLVESGGGLVQPGRSLRLSCAASGFTFDDYSMHWVRQAPGKGLEWVSGISWNSGSKGYADSVKGRFTISRDNAKNSLYLQMNSLRAEDTALYYCAKDGSGYGKFYHYGLDVWGQGTTVTVSS
VL: DIQMTQSPSSLSASVGDSVTITCRASQSINNYLNWYQQKPGKAPKLLIYTASSLLSGVPSRFSGSGSGTDFTLTISGLHPEDFATYFCQQSFSTPPITFGQGTRLDIK
notes: modified (chimeric) IgG4 Fc domain; also called PSMA-VH-11810 x CD3-VH-G9
B8: H1H5788P (antibody, V domains shown)
VH: EVQLVESGGGLVQPGRSLRLSCAASGFTFDDYTMHWVRQAPGKGLEWVSGISWNSGSIGYADSVKGRFTISRDNAKNSLYLQMNSLRAEDTALFYCAKDQSGYGHYYYGMDVWGQGTTVTVSS
VL: EIVMTQSPATLSVSPGERATLSCRASQSVSSNLAWYQQKPGQAPRLLIYGASTRATDIPARFSGSGSGTEFTLTISSLQSEDFAVYHCQQYNNWPLTFGGGTKVEIK
notes: H1H: human IgG1 Fc

Experiments:
[1] = target: T1, cynomolgus CD3 on cynomolgus T cells (cynomolgus, UniProt Q95LI5 22-198; Q95LI8 22-171); test: FACS on cynomolgus T cells
T1 construct: whole, on cells; also called Cyno T-cells; monkey T-cells
Procedure: (§1) Briefly, 2×10⁵ cells/well of human CD3-expressing Jurkat, cynomolgus T, or human PSMA-specific expressing cells were incubated with a serial dilution of bispecific antibodies for 30 min at 4° C. After incubation, cells were washed and a goat F(ab′)₂ anti-human Fcγ PE labeled secondary (Jackson Immunolabs) was added to the cells for an additional 30 min. Next, cells were washed, re-suspended in cold PBS+1% BSA and analyzed via flow cytometry on a BD FACS Canto II.
(§2) For FACS analysis, cells were gated by forward scatter height vs. forward scatter area for single events selection, followed by side and forward scatters. The EC₅₀ for cell binding titration was determined using Prism software. Values were calculated using 4-parameter non-linear regression analysis.

[2] = target: T2, human PSMA on PSMA-expressing cells (human, UniProt Q04609 1-750); test: FACS on B16F10.9/PSMA cells
T2 construct: Cell line is named under assay or readout in each row; also called B16F10.9/hPSMA; B16F10.9/PSMA
Procedure: as §1, §2

[3] = target: T3, human CD3 on CD3-expressing cells (Jurkat, human T cells) (human, UniProt P07766 23-207; P04234 22-171); test: FACS on Jurkat cells
T3 construct: On cells CD3 stands within the T cell receptor complex (also gamma and zeta chains); also called human CD3 expressing Jurkat cells
Procedure: as §1, §2

[4] = target: T3, human CD3 on CD3-expressing cells …; test: cell-based or functional assay
[5] = target: T2, human PSMA on PSMA-expressing cells; test: cell-based or functional assay
[6] = target: T4, soluble heterodimeric hCD3ε/δ.mFc protein (human); test: SPR MASS-1, 37 C, antigen-capture (hCD3ε/δ.mFc captured), antibody injected
T4 construct: also called soluble human CD3; soluble heterodimeric CD3 protein
T4 chain 1: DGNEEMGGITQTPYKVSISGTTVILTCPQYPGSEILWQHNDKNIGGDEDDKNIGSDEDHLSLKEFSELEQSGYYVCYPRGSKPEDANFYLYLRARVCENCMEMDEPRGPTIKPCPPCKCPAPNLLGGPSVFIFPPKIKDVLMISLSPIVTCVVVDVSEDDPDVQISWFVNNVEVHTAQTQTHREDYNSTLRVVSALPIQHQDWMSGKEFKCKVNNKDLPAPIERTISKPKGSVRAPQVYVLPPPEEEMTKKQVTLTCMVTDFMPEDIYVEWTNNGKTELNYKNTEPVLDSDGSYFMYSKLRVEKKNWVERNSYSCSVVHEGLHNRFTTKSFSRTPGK
T4 chain 2: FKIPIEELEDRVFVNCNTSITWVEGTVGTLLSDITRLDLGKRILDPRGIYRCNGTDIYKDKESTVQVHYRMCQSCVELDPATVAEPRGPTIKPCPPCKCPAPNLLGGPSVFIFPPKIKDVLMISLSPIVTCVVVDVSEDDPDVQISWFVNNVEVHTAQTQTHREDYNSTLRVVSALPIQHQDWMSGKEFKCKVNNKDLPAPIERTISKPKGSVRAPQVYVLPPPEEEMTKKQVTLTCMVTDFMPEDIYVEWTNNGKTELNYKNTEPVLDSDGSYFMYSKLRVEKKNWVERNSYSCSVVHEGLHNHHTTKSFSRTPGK
Procedure: Measurements were conducted on a Sierra Sensors MASS-1 instrument.
In the antigen-capture format, the MASS-1 high-density amine sensor surface was derivatized with a goat anti-mouse IgG2a polyclonal antibody (Southern Biotech). Soluble heterodimeric CD3 protein was captured and the respective antibodies were injected over the captured antigen.
Kinetic association (kₐ) and dissociation (kd) rate constants were determined by processing and fitting the data to a 1:1 binding model using MASS-1 AnalyserR2 curve fitting software. Binding dissociation equilibrium constants (KD) and dissociative half-lives (t_{1/2}) were calculated from the kinetic rate constants as: KD (M)=kd/kₐ; and t_{1/2} (min)=(ln 2/(60*kd).

[7] = target: T5, human CD3 expressed on cells (Jurkat cells; human T-cells of PBMC) (human, UniProt P09693 23-182; P20963 22-164); test: cell-based or functional assay
[8] = target: T5, human CD3 expressed on cells (Jurkat …); test: cell-based or functional assay; remark: listed apart in the source
[9] = target: T5, human CD3 expressed on cells (Jurkat …); test: FACS titration on Jurkat cells (CD3+ human T-cell line)
Procedure: FACS data was acquired using the following protocol: Cells at 2×10⁵ per well were incubated with serially diluted antibodies for 30 min on ice. Post incubation, cells were washed and secondary antibody was added and incubated for an additional 30 minutes. After incubation, cells were washed, re-suspended in cold PBS containing 1% BSA and analyzed by flow cytometry with viable Jurkat cells gated by side and forward scatters. The EC₅₀s for cell binding titration were determined using Prism software with values calculated using a 4-parameter non-linear regression analysis.

[10] = target: cynomolgus monkey CD3 expressed on monkey T-cells (PBMCs) (cynomolgus monkey, UniProt Q95LI5 22-198; Q95LI8 22-171); test: cell-based or functional assay
Chain of cynomolgus monkey CD3 expressed on monkey T-cells (PBMCs) (Q95LI5 22-198, chain 1 of 2): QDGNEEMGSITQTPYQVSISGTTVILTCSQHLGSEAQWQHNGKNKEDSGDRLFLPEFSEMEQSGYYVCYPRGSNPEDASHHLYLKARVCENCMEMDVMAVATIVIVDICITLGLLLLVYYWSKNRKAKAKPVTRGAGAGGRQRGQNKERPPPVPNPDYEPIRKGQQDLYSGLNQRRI
Chain of cynomolgus monkey CD3 expressed on monkey T-cells (PBMCs) (Q95LI8 22-171, chain 2 of 2): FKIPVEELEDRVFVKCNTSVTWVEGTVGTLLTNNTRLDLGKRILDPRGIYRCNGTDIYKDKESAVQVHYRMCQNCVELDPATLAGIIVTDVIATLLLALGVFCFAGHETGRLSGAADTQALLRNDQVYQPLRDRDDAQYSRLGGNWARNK

T2 sequence (Q04609 whole entry): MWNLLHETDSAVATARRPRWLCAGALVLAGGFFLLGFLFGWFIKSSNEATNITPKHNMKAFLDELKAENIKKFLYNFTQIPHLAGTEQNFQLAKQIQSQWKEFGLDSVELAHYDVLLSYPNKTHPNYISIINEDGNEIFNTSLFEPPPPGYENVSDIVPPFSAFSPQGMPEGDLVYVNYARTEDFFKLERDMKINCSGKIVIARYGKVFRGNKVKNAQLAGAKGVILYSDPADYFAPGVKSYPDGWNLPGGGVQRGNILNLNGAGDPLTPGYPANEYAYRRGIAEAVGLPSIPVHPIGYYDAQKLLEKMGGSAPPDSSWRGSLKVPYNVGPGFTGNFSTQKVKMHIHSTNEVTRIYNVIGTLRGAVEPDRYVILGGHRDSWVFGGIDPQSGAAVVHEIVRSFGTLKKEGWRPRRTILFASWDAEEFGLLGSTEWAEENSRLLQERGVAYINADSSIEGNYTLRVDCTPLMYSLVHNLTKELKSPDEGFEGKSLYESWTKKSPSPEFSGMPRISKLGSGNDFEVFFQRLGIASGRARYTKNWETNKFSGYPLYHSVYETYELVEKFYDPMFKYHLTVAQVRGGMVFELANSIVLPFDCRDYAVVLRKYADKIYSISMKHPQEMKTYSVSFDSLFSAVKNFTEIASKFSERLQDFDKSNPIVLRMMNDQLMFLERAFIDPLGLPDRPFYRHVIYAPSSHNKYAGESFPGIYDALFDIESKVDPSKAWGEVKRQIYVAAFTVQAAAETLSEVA
T3 sequence (P07766 23-207 limits assumed, chain 1 of 2): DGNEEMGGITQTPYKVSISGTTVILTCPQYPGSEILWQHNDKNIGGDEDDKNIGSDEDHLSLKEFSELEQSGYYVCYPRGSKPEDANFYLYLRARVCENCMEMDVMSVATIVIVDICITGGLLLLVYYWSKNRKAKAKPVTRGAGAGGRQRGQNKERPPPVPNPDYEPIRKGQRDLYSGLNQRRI
T3 sequence (P04234 22-171 limits assumed, chain 2 of 2): as the sequence (Q95LI8 22-171, chain 2 of 2) above, with V5I, K15N, V20I, T32S, N33D, N34I, A64T, N74S, L83V, R141H counted along it
T5 sequence (chain, as listed by the source, chain 1 of 4): as the sequence (P07766 23-207 limits assumed, chain 1 of 2) above
T5 sequence (chain, as listed by the source, chain 2 of 4): as the sequence (Q95LI8 22-171, chain 2 of 2) above, with V5I, K15N, V20I, T32S, N33D, N34I, A64T, N74S, L83V, R141H counted along it
T5 sequence (P09693 23-182, chain 3 of 4): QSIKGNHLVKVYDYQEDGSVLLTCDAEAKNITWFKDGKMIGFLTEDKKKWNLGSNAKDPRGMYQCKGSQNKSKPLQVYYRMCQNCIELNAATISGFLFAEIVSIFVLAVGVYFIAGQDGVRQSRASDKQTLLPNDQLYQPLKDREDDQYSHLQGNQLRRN
T5 sequence (P20963 22-164, chain 4 of 4): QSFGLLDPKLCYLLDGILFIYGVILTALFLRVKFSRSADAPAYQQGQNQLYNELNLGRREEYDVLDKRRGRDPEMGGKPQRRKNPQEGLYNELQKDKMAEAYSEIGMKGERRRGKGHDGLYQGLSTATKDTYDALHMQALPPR
T1 sequence (Q95LI5 22-198, form in doubt, chain 1 of 2): as the sequence (Q95LI5 22-198, chain 1 of 2) above
T1 sequence (Q95LI8 22-171, form in doubt, chain 2 of 2): as the sequence (Q95LI8 22-171, chain 2 of 2) above

Row | Binder | EC50 [1] | EC50 [2] | EC50 [3] | T cell activation EC50 [4] | C4-2 Cell depletion EC50 [5] | TrampC2.PSMA Cell depletion EC50 [5] | Kd [6] | T½ [6] | koff [6] | kon [6] | 22RV1 Cell depletion EC50 [5] | EC50 [M] hPBMC Proliferation [7] | U937 Cytotoxicity Human T-cells [8] | EC50 [9] | EC50 [M] mfPBMC Proliferation [10]
1 | B1 | 14.2 nM | 2.26 nM | 16.5 nM | 0.00123 nM | 0.0103 nM | 0.00643 nM |  |  |  |  |  |  |  |  | 
2 | B2 |  | 1.19 nM | 277 nM | 0.00128 nM |  | 0.00597 nM | 185 nM | 1.8 min | 0.00637 s⁻¹ | 34400 M⁻¹ s⁻¹ |  |  |  |  | 
3 | B3 | 19.6 nM | 1.31 nM | 19.3 nM | 0.00176 nM |  | 0.00927 nM | 19.4 nM | 10 min | 0.00115 s⁻¹ | 59500 M⁻¹ s⁻¹ |  |  |  |  | 
4 | B4 | 890 nM | 1.03 nM | 18.3 nM | 0.00111 nM |  | 0.00386 nM | 11.1 nM | 11.3 min | 0.00102 s⁻¹ | 92100 M⁻¹ s⁻¹ |  |  |  |  | 
5 | B5 | 170 nM | 1.3 nM | 31.9 nM |  |  |  | 53.3 nM | 3.5 min | 0.00331 s⁻¹ | 62100 M⁻¹ s⁻¹ |  |  |  |  | 
6 | B6 | 6140 nM | 2.09 nM | 210 nM | 0.00611 nM | 0.0139 nM |  | 334 nM | 2 min | 0.00577 s⁻¹ | 17300 M⁻¹ s⁻¹ | 0.00832 nM |  |  |  | 
7 | B7 |  | 1.43 nM | 274 nM | 0.00112 nM |  | 0.0035 nM | 113 nM | 2.3 min | 0.00495 s⁻¹ | 43800 M⁻¹ s⁻¹ |  |  |  |  | 
8 | B8 |  |  |  |  |  |  |  |  |  |  |  | 4.62e-12 M | 15.4 pM | 3.53 nM | 2.01e-12 M
